Test results taken from patent publication US20250340608A1 (PROTAGONIST THERAPEUTICS, published 2025).
Numbered stars: 1 amine (or outer) side, 2 acyl side, 3 side chain; on linkers, the order of the positions; unused ones are H or OH. Bridge positions count the residues as written; N and C are the ends. Square brackets hold non-standard residues; d marks the D form. Primed or numbered codes have the meaning given here. Side chains are listed from the residue outwards. Ends that are not written are not given here. * marks the point of attachment. Ida = iminodiacetic acid, O=C(CN(CC(=O)[*:3])[*:1])[*:2]; Dip = N[C@H](C(=O)O)C(c1ccccc1)c1ccccc1; γGlu = O=C(O)[C@H](CCC(=O)[*:2])N[*:1]; Palmitoyl = CCCCCCCCCCCCCCCC(=O)*; β3hP = O=C(O)C[C@@H]1CCCN1; Isovaleryl = CC(C)CC(=O)*; PEG3′ = not defined here; dapa = not defined here

B1: Compound 225 (peptide)
peptide: Isovaleryl-DTHFPCIK([dapa-Palmitoyl])FEPRSKGCK-NH2
modifications: not fully specified (bridges); cysteine pairing not given here; reading uncertain
B2: Compound 241 (peptide)
peptide: DTHFPCIKFKPRSKGWECK
modifications: not fully specified; N-terminal isovaleric acid; K10(isoGlu-Palm); C-terminal NH2
B3: Compound 224 (peptide)
peptide: DTHFPCIKFEPRSKGCKK
modifications: not fully specified; N-terminal isovaleric acid; K18(isoglu-Palm); C-terminal NH2
B4: Compound 230 (peptide)
peptide: Isovaleryl-DTHFPCIKFEPRSKGCK([dapa-Palmitoyl])K-NH2
modifications: not fully specified (bridges); cysteine pairing not given here; reading uncertain
B5: Compound 227 (peptide)
peptide: Isovaleryl-DTHFPCIKFEPK([dapa-Palmitoyl])SKGCK-NH2
modifications: not fully specified (bridges); cysteine pairing not given here; reading uncertain
B6: Compound 228 (peptide)
peptide: Isovaleryl-DTHFPCIKFEPRSK([dapa-Palmitoyl])GCK-NH2
modifications: not fully specified (bridges); cysteine pairing not given here; reading uncertain

Experiments:
[1] = biological target: T1, human ferroportin (SLC40A1) fused in frame with GFP, stably expressed in HEK293 cells (human, UniProt Q9NP59 1-571); assay: cell-based or functional assay
T1 sequence (looked up): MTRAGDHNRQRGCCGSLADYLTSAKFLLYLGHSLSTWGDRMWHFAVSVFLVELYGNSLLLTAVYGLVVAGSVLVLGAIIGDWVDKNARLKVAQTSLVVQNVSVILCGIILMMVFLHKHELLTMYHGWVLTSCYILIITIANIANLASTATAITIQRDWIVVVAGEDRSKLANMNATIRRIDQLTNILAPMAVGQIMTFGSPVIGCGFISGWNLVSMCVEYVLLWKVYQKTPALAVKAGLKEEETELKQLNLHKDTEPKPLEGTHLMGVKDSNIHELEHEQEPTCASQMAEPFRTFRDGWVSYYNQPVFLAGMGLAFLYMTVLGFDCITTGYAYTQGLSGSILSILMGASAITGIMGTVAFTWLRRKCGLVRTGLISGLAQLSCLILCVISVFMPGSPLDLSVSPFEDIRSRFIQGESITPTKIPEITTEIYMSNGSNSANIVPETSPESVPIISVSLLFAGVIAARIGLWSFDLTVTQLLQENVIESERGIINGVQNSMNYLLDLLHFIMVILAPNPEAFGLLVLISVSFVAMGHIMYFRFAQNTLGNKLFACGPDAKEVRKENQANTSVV

[2] = biological target: T2, human ferroportin (SLC40A1) fused in frame with GFP, stably expressed in HEK293 cells (human, UniProt Q9NP59 1-571); assay: cell-based or functional assay; remark: listed apart in the source
T2 sequence (looked up): T1 sequence (looked up)

Binder | Potency EC50 [1] [nM] | Potency EC50 [2] [nM] | other results
H-DTHAPICIFGPRSKGWVCM-NH2 (cysteine pairing not given here) [Compound 38] | 254 | – | –
H-DTHFPICIFGPRSKGAVCM-NH2 (cysteine pairing not given here) [Compound 66] | 520 | – | –
Isovaleryl-ATHFPCIKFGPRSKGWVCK-NH2 (not fully specified (bridges); cysteine pairing not given here) [Compound 234] | – | 60 | –
B1 | – | 17 | –
H-DTHFPICIFAPRSKGWVCM-NH2 (cysteine pairing not given here) [Compound 22] | 9430 | – | –
Isovaleryl-DTHFPCIKFEPK([γGlu-Palmitoyl])SKGCK-NH2 (not fully specified (bridges); cysteine pairing not given here) [Compound 220] | – | 5 | –
H-DTHFPICIFGPHRSKGWVCM-NH2 (cysteine pairing not given here) [Compound 27] | 149 | – | –
H-DTHFPICIFGPRAKGWVCM-NH2 (cysteine pairing not given here) [Compound 28] | 88 | – | –
H-DTHFPICIFGPRSKAWVCM-NH2 (cysteine pairing not given here) [Compound 31] | 175 | – | –
Isovaleryl-DTHFPCIKFEPRSKKWVCK-NH2 (not fully specified (bridges); cysteine pairing not given here) [Compound 214] | 15 | – | –
H-DTHFPCIFF-NH2 [Compound 56] | 441 | – | –
B2 | – | 6 | –
Isovaleryl-DTHFPCIIFGPRSKGWVCK-NH2 (not fully specified (bridges); cysteine pairing not given here) [Compound 11] | 9 | – | –
H-DTHFPICIAGPRSKGWVCM-NH2 (cysteine pairing not given here) [Compound 67] | 2470 | – | –
B3 | – | 4 | –
B4 | – | 10 | –
Isovaleryl-DTHFPCIKFEPRSKK([γGlu-Palmitoyl])CK-NH2 (not fully specified (bridges); cysteine pairing not given here) [Compound 222] | – | 4 | –
H-DTHFPCIIFK-NH2 [Compound 55] | 419 | – | –
Isovaleryl-DTHFPICIFGPRSKGWVC-NH2 (not fully specified (bridges); cysteine pairing not given here) [Compound 2] | 5 | – | –
H-ATHFPICIFGPRSKGWVCM-NH2 (cysteine pairing not given here) [Compound 33] | 184 | – | –

Binder | Potency EC50 [1] [nM] | Potency EC50 [2] [nM] | other results
H-DTHFPCIAF-NH2 [Compound 51] | 382 | – | –
[Ida]TH[Dip][β3hP]ICIFGPRSKGWVCM-NH2 (disulfide 7-18 (inferred)) [Compound 5] | 17 | – | –
H-DTHFPICAFGPRSKGWVCM-NH2 (cysteine pairing not given here) [Compound 68] | – | – | Potency EC50 (nM) [1]: > 10000 nM
Palmitoyl-DTHFPCIKFGPRSKGWVCK-NH2 (cysteine pairing not given here) [Compound 216] | – | – | Potency EC50 (nM) [1]: > 1000 nM
H-DTHFPCIIFGPRSKGWVCM-NH2 (cysteine pairing not given here) [Compound 21] | 46 | – | –
Isovaleryl-DTHAPCIKFGPRSKGWVCK-NH2 (not fully specified (bridges); cysteine pairing not given here) [Compound 236] | – | > 500 | –
H-DTHFPICIFGPRSKGWACM-NH2 (cysteine pairing not given here) [Compound 47] | 313 | – | –
Isovaleryl-DTHFPCIKAGPRSKGWVCK-NH2 (not fully specified (bridges); cysteine pairing not given here) [Compound 237] | – | 50 | –
Isovaleryl-DTHFPCIKFEPK([γGlu-Palmitoyl])SKGWECK-NH2 (not fully specified (bridges); cysteine pairing not given here) [Compound 242] | – | 8 | –
H-DTHFAICIFGPRSKGWVCM-NH2 (cysteine pairing not given here) [Compound 26] | 147 | – | –
{Palmitoyl-PEG3′}-DTHFPCIKFGPRSKGWVCK-NH2 (cysteine pairing not given here) [Compound 217] | – | – | Potency EC50 (nM) [1]: > 1000 nM
DTHFPCIKFKPRSKGWVC (N-terminal isovaleric acid; K10(mysteric acid); C-terminal NH2) [Compound 247] | – | 7 | –
H-DTHFPICIFGPASKGWVCM-NH2 (cysteine pairing not given here) [Compound 34] | 206 | – | –
H-DTHFPICIFGPRSKGWVCM-NH2 (not fully specified (bridges); cysteine pairing not given here) [Compound 18] | 125 | – | –
B5 | – | 10 | –
H-DTHFPCIKFGPRSKGWVCK-NH2 (cysteine pairing not given here) [Compound 215] | – | – | Potency EC50 (nM) [1]: > 1000 nM
H-DTHFPICIFGPRAKGWVCM-NH2 (cysteine pairing not given here) [Compound 16] | 88 | – | –
H-DAHFPCIIF-NH2 [Compound 52] | 388 | – | –
H-DTAFPICIFGPRSKGWVCM-NH2 (cysteine pairing not given here) [Compound 60] | 498 | – | –
B6 | – | 7 | –
